# Experimental data as given in US7824885B2, “Engineered proteases for affinity purification and processing of fusion proteins” (University of Maryland, College Park, priority 2003, dated 2010).
# B1: S189: processing subtilisin with D32A mutation (protein, UniProt P00782 108-382, looked up, variant D32A)
# Subtilisin BPN': AQSVPYGVSQIKAPALHSQGYTGSNVKVAVIASGIDSSHPDLKVAGGASMVPSETNPFQDNNSHGTHVAGTVAALNNSIGVLGVAPSASLYAVKVLGADGSGQYSWIINGIEWAIANNMDVINMSLGGPSGSAALKAAVDKAVASGVVVVAAAGNEGTSGSSSTVGYPGKYPSVIAVGAVDSSNQRASFSSVGPELDVMAPGVSIQSTLPGNKYGAYNGTSMASPHVAGAAALILSKHPNWTNTQVRSSLENTTTKLGDSFYYGKGLINVQAAAQ
# Key:
# Format in all cases: biochemical
# 671 (pR58FKAM-GB) = assay: fluoride-triggered cleavage/elution of 671 fusion protein on S189HT1 column; conditions: cleavage/elution by 0.1M KF, FIG. 14
# Protocol: (10 μl of 1 ml fraction 1; ˜7 μg total) • Lane 6: cleavage/elution by 0.1 M KF. (10 μl of 1 ml fraction 2; ˜3 μg total) • Lane 7: strip by 0.1 M H3PO4 (10 μl of 1 ml fraction 1; ˜10 μg total in both bands combined).
# fusion protein pR58-GB = assay: kinetics of fusion protein pR58-GB cleavage by D32 mutants, anion triggered; conditions: 0.1M KPi; for Rate vs. [Cl]: pH 8.8, 23 C; for Rate vs. pH: 23 C
# Excerpt: Particularly advantageous are processing proteases whose activity is triggered on demand. Ions which have been useful as triggers are OH— (pH), Cl— and F—. The tables summarize cleavage rates of various D32 mutants as a function of specific anion.
# Thus, S189 can be trigger to increase cleavage rates if desired and this can be very advantageous when required in a purification process. Once the fusion protein is bonded to the subtilisin variant to form a binding complex, the target protein can be cleaved from the prodomain protein by activation of the subtilisin variant with the introduction of an activating ion solution.
# pR58-GB = assay: binding and cleavage of pR58-GB on immobilized S189 matrix
# Protocol: The binding and catalytic properties of processing subtilisin allows them to be used as both the affinity matrix and processing protease for purification of proteins tagged with the pR58 sequence.
# An E. coli cell lysate containing pR58-GB was passed over the matrix containing immobilized S189. Cleavage of the bound fusion protein then was then effected either by addition of a triggering anion (e.g. 10 mM KF) or by extended incubation (e.g. 18 hours at pH 7.2) as shown in FIG. 6. After cleavage the pure, processed protein was washed off the matrix while the cognate prodomain remains tightly bound to subtilisin on the matrix. Multiple rounds of purification can be affected by stripping the pR58 from the S189 column at pH 2.1 and re-equilibrating the column at neutral pH. High stable and facile-folding mutants such as those listed in the Table 1 (FIG. 3) of Processing Subtilisin are required for column recycling.
molecule,measurement,setting,value
B1,cleavage reaction complete,671 (pR58FKAM-GB),~90%
same,Rate,"fusion protein pR58-GB; pH 7.2, 23 C",0.18 h⁻¹
same,Rate vs. [Cl],fusion protein pR58-GB; [Cl] 0 M,0.97 h⁻¹
same,Rate vs. [Cl],fusion protein pR58-GB; [Cl] 0.5 M,5 h⁻¹
same,Rate vs. [F],"fusion protein pR58-GB; [F] 0 mM, pH 7.2, 23 C",0.003 min⁻¹
same,Rate vs. [F],"fusion protein pR58-GB; [F] 1 mM, pH 7.2, 23 C",0.018 min⁻¹
same,Rate vs. [F],"fusion protein pR58-GB; [F] 10 mM, pH 7.2, 23 C",0.14 min⁻¹
same,Rate vs. [F],"fusion protein pR58-GB; [F] 100 mM, pH 7.2, 23 C",0.8 min⁻¹
same,Rate vs. pH,fusion protein pR58-GB; pH 5.7,0.135 hr^−1
same,Rate vs. pH,fusion protein pR58-GB; pH 7.2,0.18 hr^−1
same,Rate vs. pH,fusion protein pR58-GB; pH 8.8,0.97 hr^−1
same,Rate vs. pH,fusion protein pR58-GB; pH 10.0,4 hr^−1
same,rate of binding to the prodomain,pR58-GB; FIG. 5,rapid
same,half-time of cleavage,"pR58-GB; FIG. 6, a lag phase is evident",about four
